{"source": "patent US20090162366A1", "binders": {"B1": {"name": "C40G1 (antibody, V domains shown)", "VH": "QLQLQESGPGLVKPSETLSLTCTVSGGSISSSFYYCGWIRQPPGKGLEWIGSIYYRGSTYYNPSLKSRVTISVDTSKNQFSLKLSSVTAADTAVYYCARRVTMVRGVKGDYFDYWGQGTLVTVSS", "VL": "DIQMTQSPSSLSASVGDRVTITCRASQGISSWLAWYQQKPEKVPKSLIYAASSLQSGVPSRFSGSGSGTDFTLTISSLQPEDFATYYCQQYNYYPLTFGGGTKVEIKR"}}, "key": {"[1]": {"biological_target": "M15 (influenza A virus)", "assay": "ELISA on peptide, Ab 10 µg/ml"}, "[2]": {"biological_target": "NM15 (influenza A virus)", "assay": "ELISA on peptide, Ab 10 µg/ml"}, "[3]": {"biological_target": "NM17 (influenza A virus)", "assay": "ELISA on peptide, Ab 10 µg/ml"}, "[4]": {"biological_target": "NM16 (influenza A virus)", "assay": "ELISA on peptide, Ab 10 µg/ml"}, "[5]": {"biological_target": "M2 peptide (influenza A virus, A/Hong Kong/1/68 (H3N2))", "assay": "ELISA on peptide, Ab 10 µg/ml"}, "[6]": {"biological_target": "M16 (influenza A virus)", "assay": "ELISA on peptide, Ab 10 µg/ml"}, "[7]": {"biological_target": "M2G peptide conjugated with BSA (influenza A virus, A/Puerto Rico/8/34 (H1N1))", "assay": "peptide-BSA ELISA (++ EC50<10^-9M; + 10^-9M<EC50<10^-8M)"}, "[8]": {"biological_target": "M2-BSA conjugate (influenza A virus, A/Hong Kong/1/68 (H3N2))", "assay": "peptide-BSA ELISA (++ EC50<10^-9M; + 10^-9M<EC50<10^-8M)"}, "[9]": {"biological_target": "M2FG peptide conjugated with BSA (influenza A virus, A/X-31 (H3N2))", "assay": "peptide-BSA ELISA (++ EC50<10^-9M; + 10^-9M<EC50<10^-8M)", "conditions": "remark: other sources report otherwise"}}, "data": [{"binder": "B1", "values": [{"measurement": "ELISA(OD450)", "setting": "[1]", "value": 2.73, "unit": "OD450"}, {"measurement": "ELISA(OD450)", "setting": "[2]", "value": 2.51, "unit": "OD450"}, {"measurement": "ELISA(OD450)", "setting": "[3]", "value": 2.41, "unit": "OD450"}, {"measurement": "ELISA(OD450)", "setting": "[4]", "value": 2.37, "unit": "OD450"}, {"measurement": "ELISA(OD450)", "setting": "[5]", "value": 2.56, "unit": "OD450"}, {"measurement": "ELISA(OD450)", "setting": "[6]", "value": 2.64, "unit": "OD450"}, {"measurement": "EC50", "setting": "[7]", "value": "< 1", "unit": "nM"}, {"measurement": "EC50", "setting": "[8]", "value": "< 1", "unit": "nM"}, {"measurement": "EC50", "setting": "[9]", "value": "< 1", "unit": "nM"}]}]}
